Values quoted from earlier work, collected in paper PMC10817355.
pKd: −log10 of the molar value.

Biological target: BTLA (Homo sapiens) (UniProt Q7Z6A9)
Chain of UniProt Q7Z6A9 (Q7Z6A9 31-157): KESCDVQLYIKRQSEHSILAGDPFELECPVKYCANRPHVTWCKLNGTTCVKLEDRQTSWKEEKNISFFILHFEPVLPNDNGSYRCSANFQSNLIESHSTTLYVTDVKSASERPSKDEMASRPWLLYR

Substance: HVEM(14-39) 14-39 (from UniProt Q92956)
- pKd: 6.99
